These are literature values, as cited in publication PMC2830912.

pKd: −log10 of the molar value.

The data set concerns the target Pol III alpha subunit (Escherichia coli) (UniProt P10443).

Sequence of DnaX tau subunit (P06710 2-643): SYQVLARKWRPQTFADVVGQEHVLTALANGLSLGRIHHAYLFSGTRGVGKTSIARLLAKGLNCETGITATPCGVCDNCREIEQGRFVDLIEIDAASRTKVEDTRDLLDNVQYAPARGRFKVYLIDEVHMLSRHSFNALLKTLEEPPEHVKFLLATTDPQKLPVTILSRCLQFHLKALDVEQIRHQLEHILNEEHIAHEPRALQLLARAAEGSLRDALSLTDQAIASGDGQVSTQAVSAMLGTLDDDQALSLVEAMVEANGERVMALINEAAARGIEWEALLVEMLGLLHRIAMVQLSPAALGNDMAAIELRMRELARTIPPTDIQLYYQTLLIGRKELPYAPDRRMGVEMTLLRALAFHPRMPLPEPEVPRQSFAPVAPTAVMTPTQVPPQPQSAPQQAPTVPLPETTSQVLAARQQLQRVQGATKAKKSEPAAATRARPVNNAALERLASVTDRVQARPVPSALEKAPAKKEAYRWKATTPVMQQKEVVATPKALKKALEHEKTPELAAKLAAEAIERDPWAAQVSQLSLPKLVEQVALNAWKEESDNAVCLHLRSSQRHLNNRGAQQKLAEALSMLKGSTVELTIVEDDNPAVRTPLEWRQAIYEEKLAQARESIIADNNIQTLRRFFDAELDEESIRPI
Sequence of Pol III alpha subunit (Escherichia coli) (P10443 whole entry): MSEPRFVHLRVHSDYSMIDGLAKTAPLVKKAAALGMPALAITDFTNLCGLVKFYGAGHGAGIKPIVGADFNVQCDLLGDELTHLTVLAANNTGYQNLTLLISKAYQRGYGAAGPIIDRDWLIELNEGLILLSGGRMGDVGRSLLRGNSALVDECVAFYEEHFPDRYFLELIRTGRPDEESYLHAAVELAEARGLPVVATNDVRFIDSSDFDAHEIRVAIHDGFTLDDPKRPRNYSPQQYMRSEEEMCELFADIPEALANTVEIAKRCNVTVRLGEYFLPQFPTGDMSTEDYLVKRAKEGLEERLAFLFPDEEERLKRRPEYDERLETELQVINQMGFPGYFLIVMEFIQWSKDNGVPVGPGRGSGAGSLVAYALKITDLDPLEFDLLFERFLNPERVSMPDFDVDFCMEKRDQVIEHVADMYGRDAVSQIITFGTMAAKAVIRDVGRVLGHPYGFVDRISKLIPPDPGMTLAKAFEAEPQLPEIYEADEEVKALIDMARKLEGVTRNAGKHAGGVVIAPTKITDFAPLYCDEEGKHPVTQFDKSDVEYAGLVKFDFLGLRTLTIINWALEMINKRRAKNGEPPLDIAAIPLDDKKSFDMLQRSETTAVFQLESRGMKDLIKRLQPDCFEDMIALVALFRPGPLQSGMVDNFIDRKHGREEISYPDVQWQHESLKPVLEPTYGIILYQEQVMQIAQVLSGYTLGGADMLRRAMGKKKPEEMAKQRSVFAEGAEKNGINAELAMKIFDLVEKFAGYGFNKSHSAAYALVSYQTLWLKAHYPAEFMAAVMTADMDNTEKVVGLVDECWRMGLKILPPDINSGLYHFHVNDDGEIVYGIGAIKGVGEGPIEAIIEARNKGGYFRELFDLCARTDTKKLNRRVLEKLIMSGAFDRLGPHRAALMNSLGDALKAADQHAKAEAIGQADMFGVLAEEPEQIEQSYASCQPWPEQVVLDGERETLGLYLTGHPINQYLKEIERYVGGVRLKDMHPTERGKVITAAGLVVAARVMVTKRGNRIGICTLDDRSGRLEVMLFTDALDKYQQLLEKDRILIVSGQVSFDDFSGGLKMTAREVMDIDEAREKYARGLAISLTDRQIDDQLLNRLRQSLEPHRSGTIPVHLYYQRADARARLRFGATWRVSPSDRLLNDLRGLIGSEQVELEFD

In the case of DnaX tau subunit (from UniProt P06710), the negative logarithm of the Kd (pKd) is 10.15.
